Measured values published in patent US20070207967.

How the values were obtained:
[1] = target: recombinant soluble human uPAR (suPAR) (UniProt Q03405)
[2] = tested on: PPC peptide, soluble recombinant 18-mer ADGACGYGRFSPPCGAAG

trypsin-activated MMP-9, sequence (chain, as listed by the source): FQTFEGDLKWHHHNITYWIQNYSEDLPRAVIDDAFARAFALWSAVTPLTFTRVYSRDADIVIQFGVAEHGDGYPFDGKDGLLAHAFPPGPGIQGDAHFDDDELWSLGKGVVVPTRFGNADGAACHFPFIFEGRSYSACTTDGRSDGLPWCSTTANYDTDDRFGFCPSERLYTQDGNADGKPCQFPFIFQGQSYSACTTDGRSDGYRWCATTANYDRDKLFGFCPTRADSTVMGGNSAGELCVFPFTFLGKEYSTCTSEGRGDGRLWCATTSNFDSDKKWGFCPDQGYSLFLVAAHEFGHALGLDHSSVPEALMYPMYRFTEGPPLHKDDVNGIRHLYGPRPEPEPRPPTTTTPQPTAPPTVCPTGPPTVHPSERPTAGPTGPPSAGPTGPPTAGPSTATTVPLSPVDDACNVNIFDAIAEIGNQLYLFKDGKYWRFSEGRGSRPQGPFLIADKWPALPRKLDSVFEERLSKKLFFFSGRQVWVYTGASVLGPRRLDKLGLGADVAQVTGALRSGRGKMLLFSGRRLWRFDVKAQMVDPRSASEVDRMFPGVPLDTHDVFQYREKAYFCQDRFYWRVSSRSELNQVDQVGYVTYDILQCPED
recombinant soluble human uPAR (suPAR), sequence (Q03405 whole entry, looked up, tested part not stated): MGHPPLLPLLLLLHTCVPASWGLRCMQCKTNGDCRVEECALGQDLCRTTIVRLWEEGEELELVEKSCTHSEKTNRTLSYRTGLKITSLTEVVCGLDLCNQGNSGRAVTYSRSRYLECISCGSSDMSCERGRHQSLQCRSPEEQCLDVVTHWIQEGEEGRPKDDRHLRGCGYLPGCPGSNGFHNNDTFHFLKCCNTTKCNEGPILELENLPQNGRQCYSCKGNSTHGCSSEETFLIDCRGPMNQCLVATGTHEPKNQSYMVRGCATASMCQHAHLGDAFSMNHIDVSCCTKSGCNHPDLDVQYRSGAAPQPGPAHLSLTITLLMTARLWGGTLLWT

With trypsin-activated MMP-9 as the substance, how does the “cleavage of soluble uPAR in vitro (western blot)” value [1] read?
Its value is “MMP-9 cleaved the domain 1 (D1) from uPAR similarly as chymotrypsin does”.

What about the “gelatin degradation assay (enzymatic activity, biotinylated gelatin substrate)” value [2] of the same substance?
Its value is “PPC inhibited both MMP-9 and MMP-2 activity”.
